Experimental data: patent US20200317791A1 (Janssen / Centocor, published 2020)

What was measured:
[1] = target: T1, CW6W3.ECO.PP.002/.003 (rhHLA-Cw6/ARF) (human); test: SPR ProteOn XPR36, captured mAb; valid kinetic fit;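 on Kd: Anti-HLA-Cw6 mAbs captured at 100–200 RU, antigen flowed in PBST, 180 s association and 900 s dissociation, double-referenced sensorgrams globally fit to a 1:1 Langmuir model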;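 on koff: Anti-HLA-Cw6 mAbs captured at 100–200 RU, antigen flowed in PBST, 180 s association and 900 s dissociation, double-referenced sensorgrams globally fit to a 1:1 Langmuir model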;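 on kon: Anti-HLA-Cw6 mAbs captured at 100–200 RU, antigen flowed in PBST, 180 s association and 900 s dissociation, double-referenced sensorgrams globally fit to a 1:1 Langmuir model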
T1 construct: also called rhHLA-Cw6/ARFN; rHLA-Cw6/ARFN

A24_A*24:02 = target: T2, A24_A*24:02 (human, UniProt A*24:02); test: LABScreen beads
T2 construct: on LABScreen bead; also called HLA-A*24:02 (LABScreen class I bead)
T2 heavy chain: not shown

[2] = target: T3, CW6W36 (rhHLA-Cw6/ADAMTSL5) (human); test: SPR ProteOn XPR36, captured mAb
T3 construct: also called CW6W36.002; rHLA-Cw6/ADAMTSL5

CW6W32 (rhHLA-Cw6/TRAT) = target: T4, CW6W32 (rhHLA-Cw6/TRAT) (human); test: SPR ProteOn XPR36, captured mAb
T4 construct: also called CW6W32.009; rHLA-Cw6/TRAT

B1: CW6B188 (antibody, V domains shown)
VH: EVQLVESGGGLVQPGGSLRLSCAASGFTFTNYWMTWVRQAPGKGLEWVANIKQSGNEKYYVDSVKGRFTISRDNAKNSLYLQMNSLRAEDTAVYYCARTLYEWELEPFDYWGQGTLVTVSS
VL: SYVLTQPPSVSVAPGQTARITCGGNRIGSKNLHWYQQKPGQAPVLVVYDDSDRPSGIPERFSGSNSGSTATLTISRVEAGDEADYYCQVWDSSRDHVVFGGGTKLTVL
notes: also called CW6B188.001; CW6M188 (DNA ID)
B1 was tested. Which Kd [1] did it give?
The Kd was 0.12 nM.

And the koff [1]?
The koff was 0.000574 s⁻¹.

And the kon [1]?
Its kon is 5.66e+06 M⁻¹ s⁻¹.

Does B1 bind (A24_A*24:02)?
Result: no binding (tested: 10 µg/ml)

Does B1 bind [2]?
Result: binds

Does B1 bind (CW6W32 (rhHLA-Cw6/TRAT))?
Result: binds
